The values below come from publication PMC2833306.

For the test, the target named is integrins on HS deficient CHO-2241 cells (Chinese hamster (endogenous in CHO-2241)). In words: flow cytometry on cells; CHO-2241 cells (HS deficient) in PBS 1 mM CaCl2, 1 h at 4°C with 15 ug/mL particles; bound particles detected with rabbit serum against the Ad3 penton base and FITC secondary antibody. In general terms: Flow cytometry measures light scatter and fluorescence of single cells or particles in a stream.

As to “MutAQAS dodecahedron (HAd3 penton base, KQKR to AQAS) (from UniProt Q2Y0H9 1-544) (complex)”, the inhibition of binding compared to Bs-Dd came to 80%.
